# ± gives the standard error.
# Assay: background-corrected fluorescence of 3'-dye-labeled ssDNA relative to brightest sequence (3'-GCGCG) (fraction); higher = brighter dye fluorescence (less quenching)
# Conditions: dye: Cy3 (3' terminal)
# Method in brief: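 Subtracting background from unlabeled oligos and scaling to the brightest sequence gave the reported fluorescence. Single-stranded DNA bearing a 3' Cy3 or Cy5 dye next to each of 1024 permuted pentamers was assembled on glass slides by light-directed phosphoramidite synthesis. Following a 2 h r.t. acetonitrile wash, slides were scanned at 532 or 635 nm before and after overnight ethylenediamine/ethanol deprotection, and values were averaged over 10 features per array and at least 3 syntheses.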
row,Sequence,background-corrected fluorescence
1,TTTTTTCAGCATGCTGATGCTTTTTTTTTTTTTTTGTACA [ACATG],0.528 ± 0.0051
2,TTTTTTCAGCATGCTGCGCATTTTTTTTTTTTTTTGTAAT [TAATG],0.531 ± 0.019
3,TTTTTTCAGCATGCTGCTCATTTTTTTTTTTTTTTGTAAG [GAATG],0.582 ± 0.038
4,TTTTTTCAGCATGCTGCTGATTTTTTTTTTTTTTTGTAAC [CAATG],0.441 ± 0.025
5,TTTTTTCAGCATGCTGCTGCTTTTTTTTTTTTTTTGTAAA [AAATG],0.618 ± 0.014
6,TTTTTTCATCAGCAGCAGCATTTTTTTTTTTTTTTGGTTT,0.536 ± 0.02
7,TTTTTTCATCAGCAGCATCATTTTTTTTTTTTTTTGGTTG [GTTGG],0.524 ± 0.02
8,TTTTTTCATCAGCAGCATGATTTTTTTTTTTTTTTGGTTC [CTTGG],0.414 ± 0.026
9,TTTTTTCATCAGCAGCATGCTTTTTTTTTTTTTTTGGTTA [ATTGG],0.53 ± 0.015
10,TTTTTTCATCAGCATCAGCATTTTTTTTTTTTTTTGGTGT [TGTGG],0.663 ± 0.02
11,TTTTTTCATCAGCATCATCATTTTTTTTTTTTTTTGGTGG,0.629 ± 0.028
12,TTTTTTCATCAGCATCATGATTTTTTTTTTTTTTTGGTGC [CGTGG],0.522 ± 0.0057
13,TTTTTTCATCAGCATCATGCTTTTTTTTTTTTTTTGGTGA [AGTGG],0.627 ± 0.026
14,TTTTTTCATCAGCATGAGCATTTTTTTTTTTTTTTGGTCT [TCTGG],0.486 ± 0.026
15,TTTTTTCATCAGCATGATCATTTTTTTTTTTTTTTGGTCG [GCTGG],0.526 ± 0.035
16,TTTTTTCATCAGCATGATGATTTTTTTTTTTTTTTGGTCC [CCTGG],0.404 ± 0.0089
17,TTTTTTCATCAGCATGATGCTTTTTTTTTTTTTTTGGTCA [ACTGG],0.506 ± 0.027
18,TTTTTTCATCAGCATGCGCATTTTTTTTTTTTTTTGGTAT [TATGG],0.525 ± 0.017
19,TTTTTTCATCAGCATGCTCATTTTTTTTTTTTTTTGGTAG [GATGG],0.541 ± 0.021
20,TTTTTTCATCAGCATGCTGATTTTTTTTTTTTTTTGGTAC [CATGG],0.442 ± 0.016
21,TTTTTTCATCAGCATGCTGCTTTTTTTTTTTTTTTGGTAA [AATGG],0.573 ± 0.022
22,TTTTTTCATCATCAGCAGCATTTTTTTTTTTTTTTGGGTT,0.598 ± 0.011
23,TTTTTTCATCATCAGCATCATTTTTTTTTTTTTTTGGGTG [GTGGG],0.627 ± 0.025
24,TTTTTTCATCATCAGCATGATTTTTTTTTTTTTTTGGGTC [CTGGG],0.511 ± 0.03
25,TTTTTTCATCATCAGCATGCTTTTTTTTTTTTTTTGGGTA [ATGGG],0.614 ± 0.0069
26,TTTTTTCATCATCATCAGCATTTTTTTTTTTTTTTGGGGT,0.741 ± 0.023
27,TTTTTTCATCATCATCATCATTTTTTTTTTTTTTTGGGGG,0.709 ± 0.059
28,TTTTTTCATCATCATCATGATTTTTTTTTTTTTTTGGGGC [CGGGG],0.631 ± 0.03

# Same assay, conditions: dye: Cy5 (3' terminal)
row,Sequence,background-corrected fluorescence
1,TTTTTTCAGCATGCTGATGCTTTTTTTTTTTTTTTGTACA [ACATG],0.399 ± 0.019
2,TTTTTTCAGCATGCTGCGCATTTTTTTTTTTTTTTGTAAT [TAATG],0.435 ± 0.043
3,TTTTTTCAGCATGCTGCTCATTTTTTTTTTTTTTTGTAAG [GAATG],0.462 ± 0.069
4,TTTTTTCAGCATGCTGCTGATTTTTTTTTTTTTTTGTAAC [CAATG],0.364 ± 0.026
5,TTTTTTCAGCATGCTGCTGCTTTTTTTTTTTTTTTGTAAA [AAATG],0.513 ± 0.028
6,TTTTTTCATCAGCAGCAGCATTTTTTTTTTTTTTTGGTTT,0.402 ± 0.045
7,TTTTTTCATCAGCAGCATCATTTTTTTTTTTTTTTGGTTG [GTTGG],0.392 ± 0.022
8,TTTTTTCATCAGCAGCATGATTTTTTTTTTTTTTTGGTTC [CTTGG],0.31 ± 0.025
9,TTTTTTCATCAGCAGCATGCTTTTTTTTTTTTTTTGGTTA [ATTGG],0.446 ± 0.071
10,TTTTTTCATCAGCATCAGCATTTTTTTTTTTTTTTGGTGT [TGTGG],0.511 ± 0.037
11,TTTTTTCATCAGCATCATCATTTTTTTTTTTTTTTGGTGG,0.483 ± 0.055
12,TTTTTTCATCAGCATCATGATTTTTTTTTTTTTTTGGTGC [CGTGG],0.419 ± 0.027
13,TTTTTTCATCAGCATCATGCTTTTTTTTTTTTTTTGGTGA [AGTGG],0.555 ± 0.04
14,TTTTTTCATCAGCATGAGCATTTTTTTTTTTTTTTGGTCT [TCTGG],0.391 ± 0.031
15,TTTTTTCATCAGCATGATCATTTTTTTTTTTTTTTGGTCG [GCTGG],0.405 ± 0.028
16,TTTTTTCATCAGCATGATGATTTTTTTTTTTTTTTGGTCC [CCTGG],0.317 ± 0.03
17,TTTTTTCATCAGCATGATGCTTTTTTTTTTTTTTTGGTCA [ACTGG],0.414 ± 0.02
18,TTTTTTCATCAGCATGCGCATTTTTTTTTTTTTTTGGTAT [TATGG],0.411 ± 0.025
19,TTTTTTCATCAGCATGCTCATTTTTTTTTTTTTTTGGTAG [GATGG],0.431 ± 0.046
20,TTTTTTCATCAGCATGCTGATTTTTTTTTTTTTTTGGTAC [CATGG],0.349 ± 0.036
21,TTTTTTCATCAGCATGCTGCTTTTTTTTTTTTTTTGGTAA [AATGG],0.458 ± 0.031
22,TTTTTTCATCATCAGCAGCATTTTTTTTTTTTTTTGGGTT,0.489 ± 0.031
23,TTTTTTCATCATCAGCATCATTTTTTTTTTTTTTTGGGTG [GTGGG],0.428 ± 0.024
24,TTTTTTCATCATCAGCATGATTTTTTTTTTTTTTTGGGTC [CTGGG],0.377 ± 0.024
25,TTTTTTCATCATCAGCATGCTTTTTTTTTTTTTTTGGGTA [ATGGG],0.517 ± 0.03
26,TTTTTTCATCATCATCAGCATTTTTTTTTTTTTTTGGGGT,0.626 ± 0.053
27,TTTTTTCATCATCATCATCATTTTTTTTTTTTTTTGGGGG,0.635 ± 0.03
28,TTTTTTCATCATCATCATGATTTTTTTTTTTTTTTGGGGC [CGGGG],0.532 ± 0.033
